Reference: the DeepSol protein solubility set

Assay: soluble on expression in E. coli; label from the status in PepcDB or PDB records

Sequence	soluble on expression in E. coli
MSTGVKANDVKTKTKGADLVVDCLIKQGVTHVFGIPGAKIDSVFDVLQERGPELIVCRHEQNAAFMAAAIGRLTGKPGVCLVTSGPGTSNLATGLVTANAESDPVVALAGAVPRTDRLKRTHQSMDNAALFEPITKYSVEVEHPDNVPEALSNAFRSATSTNPGATLVSLPQDVMTAETTVESIGALSKPQLGIAPTHDITYVVEKIKAAKLPVILLGMRASTNEVTKAVRALIADTELPVVETYQAAGAISRELEDHFFGRVGLFRNQPGDILLEEADLVISIGYDPIEYDPKFWNKLGDRTIIHLDDHQADIDHDYQPERELIGDIALTVNSIAERLPKLVLSTKSEAVLERLRAKLSEQAEVPNRDSEGVTHPLQVIRTLRSLISDDTTVTCDIGSHSIWMARCFRSYEPRRLLFSNGMQTLGVALPWAIAATLVEPGKKVVSVSGDGGFLFSAMELETAVRLNSPIVHLVWRDGTYDMVAFQQMMKYGRTSATEFGDVDLVKYAESFGATGLRVNTPDELEGVLKSALAADGPVIIDIPIDYRDNIKLSEKLLPNQLN	not soluble
MSTIAKDQTQINDKIRAKELRLIGQDGEQIGVKSKREALEMAERVDLDLVVVAPNAKPPVARIMDYGKFKFEQQKKEKEMKKKQKIINVKEIRLSPTIEEHDFQTKLKNGRKFLTKGDKCKVSIRFRGRAITHKEIGQRVLEKYADECKDIATVEQKPKMDGRQMFIMLAPTAEK	not soluble
MSTKEIICTLKGQFFLSPREEKFLRLLEEMGIPEEDIQEGIRECLKSVSPKKRKNFPLFKCFSKILEVNKVRALERGKREHLDWKRVFERKVSVVKHLLDFNYTEPKTEEEAEKTLQEIERKIFKKLWENLDKERKREIYNKYKEVKEDEELFKELIKHELRKIFQIPVLSLYVD	not soluble
MSTKLTGYVWDGCAASGMKLSSVAIMARLADFSNDEGVCWPSIETIARQIGAGMSTVRTAIARLEAEGWLTRKARRQGNRNASNVYQLNVAKLQAAAFSQLSDSDPSKSDASKSDPSKFDASKSGKKAGFHPSESGGDPSVKSKHDPSDKKPSRPDSSQPDTQTAEQDFLTRHPDAVVFSPKKRQWGTQDDLTCAQWLWKKIIALYEQAAECDGEVVRPKEPNWTAWANEIRLMCVQDGRTHKQICEMYSRVSRDPFWCRNVLSPSKLREKWDELSLRLSPSVSTYTEKREDPYFKASYDNVDYSQIPAGFRG	not soluble
MSTKMTPPVEKNEFIDVVFEDLTHDGAGVAKVKGYPIFVKNGLPGEEAQIKIIKVKKNFAFGRLMKLHTESPYRKDAECPVYNQCGGCQLQHLTYEGQLQAKEKQVRDVMQRIGGLADVPVHPVLGMKNPWVYRNKAQVPIGEREGGLVAGFYRQGTHDIINMESCLIQAEENDTLIQEVKRICEKHGITAYNEERNKGTLRHVMARYGQVTGEIMLVFITRTAELPNKKAIIEEIAAKFPEVKSIVQNVNTKRTNVIFGDKTTVLYGSEYIYDFIGDIKFAISARSFYQVNPEQTKVLYDKTLEYAKLNGNETVIDAYCGIGSISLFLAQKAKKVYGVEIVPEAIEDANRNAALNNMTNAEFGVGEAEVVIPKWYKEGVIADTMVVDPPRKGCDEALLNTIIDMKPNRVVYVSCNPATLARDLKVLEEGGYKTQEVQPVDMFPHTTHVECVAWLKLV	not soluble
MSTNPFAILRLPESALRKSINQMGLMEQFSLSVLSNKTKHAVTMLPEVKNDVSITMTSSLELLLSNHSQDVDFIFEMDSHYPNVEIRQRFDNARCRFTQLSIPGFTVKHWIEHIVDVFCKNQGVALIFESIMRERFYELYEIIKNIKIVHLEPFSSQIQDYQRLTLFPSLEWLTVIGVDEAPIGTPILIQNFEGFIIFPNIQWKIDDVLISNFSNLRMWHRTFSVQDLNLFMRQWIKGSMPRLEEFDVILSHSNQHKLVETDLFKSIKYTVKENENCKINVIKRRDGAKASVCFGGKSSYEFHFTVESEPD	not soluble
MSTNPSQLVAADRIGFARLTKRAFDGENLYPLWQELMSKTDAGTATAGEQLDLALITQLFGHKQAGLSVQTETLKQQQLFRSPCASDNPRLRVLALAADIDMGGNTPIEFLLQDSGIELQTLYVIDGVPLPDPLPAHDVAIVIASDSDECMSALAAIEARVANWPAPLLNPPHLIRHLDRDKLYRLIGDIEGLEIPDTISVGRDTLVAAANGSATLPEVTGGVDFPIIVRPRGSHAGFGLARITDSVALLDYLRDRQESDYFIARYVDYASDDGQFRKYRVVVVDGKPYACHMAIANRWDIWYLNAGMAEDEVKRLEEAAFFHTFDFGFALRHKTALDGMIERIGLDYFTIDCAQTPRGDLLVFEIDNTAVVHDMDSPELYPYKPPQMHKIFDAFASMLERRVASRLTSVAAAALEHHHHHH	soluble
MSTPVLELRGIVKTFGATRALDGASLRVAAGSVHGLVGENGAGKSTLIKVLAGIHRPDAGSLLLDGQPHGHFSPRQVERLGIGFIHQERLLPARFTVGEALFFGHERRFGPLLDRRSQQREAARLLDDYFGLRLPANALIGELSSAEQQMVQIVRALLIKPRVLVFDEPSVALVQREVERLLRIVQRLRDDGLAIVYISHYLQEIEALCDRVTVLRNGRDVAEVSPRNTSLEQITRLMVNREVGELYPKVAVPAGALLLDVRGLGRARAYQGIDLQVRRGEIVGLTGLVGSGAKELLRSLFGLAPPDSGEVRLDGQPLSLRSPREAVAQGVALMPEERRRQGVALDLSVQENTTLAALSRFVRLGLLSPARERHTTLELIERLRIKAHGAHAKVRQLSGGNQQKVALAKWFARCSSLYLLDEPSVGIDVGAKVEIYRLIGELVKEGAGVLILSSDLPELIGLCDRIHVMHRGAIAARFAAGEANSDRLLAVATGAQRAQNEERPFYAYAIAI	not soluble
MSTSEMLELNRTIDRLRRAVGSLRSMYGDAASVRRLSNDLERLEIDARELDSSPPNVVHREPVERIKVSDTPYDASMWLGIDDEGLGGLHYERG	not soluble
MSTSHDRAVLNQILNPLMPTSDSGIAEIHLESDSLEHPGYELSLQLEREGVALAEGVRLDEAIEKFTKALEVCPKNPSAYNNRAQAYRLQNKPEKALDDLNEALSLAGPKTKTACQAYVQRASIYRLRGDDDKARTDFASAAELGSSFAKMQLVALNPYAAMCNKMLAEVFEKAKTGED	soluble
MSTSQPREQFLLISALGPNPMELTTLLCRACVESRCAVVSSRLTRHGEFSALVLQISGSWDALARLEGSLPALTKRGDITLSMTRSNAHVTRAQALPYVAYVSAVYRPDILNELCQFFIDHNIELENLTCDTYQAPHTNTTMLNATITVTLPAGTQISWLRDQFLDFADALNLDALIEPWRPQHP	not soluble
MSTSTLQSEQSMEIITPPADIGTRTLVDKAAQFVSKKGLEFETKIIDSYPTDAKFNFLRSTADPCHTYYKHKLAEYSSQNQDGATDESDIKIFHAPPNVTTTAIVETTSCLVSQFGSEFEMMVKDSNTDDARFNFLKSSEDPYNVLYKQKLDEYSLDPRDAYYQHKLAESISKYHREATPKLVLPNLLQFRLVKEMTFEELDTVKVTAQFVAWYGDDFRGFLMERVMTEPQFEFMKATDYRFSFYNEFVVAYSQVLNPPKYLKDKLRGRAAYTVIGHLLITMSEEEIS	soluble
MSVAEFDADVIVDARDCIMGRVASQVAEQALDGETVAVVNAERAVITGREEQIVEKYEKRVDIGNDNGYFYPKRPDGIFKRTIRGMLPHKKQRGREAFESVRVYLGNPYDEDGEVLDGTSLDRLSNIKFVTLGEISETLGANKTW	soluble
MSVATATMPQQQNNFAQTLSQSSSTASAPAPTSAPVTTPAPGSRGAALFGGVFHRGFFSKPVERTEEENYRYLMALDR	not soluble
MSVAVATLHAAASGAVLRRRRTYIHPQQPAADVCPQACTRICPPPPLPHGLRVRGGHLVRYTACVPAHTGSMSASSTVSDRRVCIFFDCRVAGDGKGYEELRQTVYAQCSQLLTLSYLHYQRSGTTLSATVHLVTHTRVESFATPFCATSTDHPIDSGAAGVISGLRALAAAQPDHSVNACGAAIFGNRMESVLPHVQRALGGSQQRHQLILFCSSYVSHTEATQSLSGLCLDASPHQRLRCILVDWEAVCVTVGELASNVRVYRCSRSARQLQAAMQEILSLFLLPDVRSSRRLGLQLGLQAVPVIATISHYGAFLDGRDTIGSVVATDRASSAAAPMAGGVMHQRLAETNHRHNRANAASVVERDDRDPWSTLHLRAVLEADNIDESFLMGDTWTLALDTSAASTSTLTSSSAPSWPCTASTVALWHAFCNAFLGDALVFTGEETGIEAHRHAMQRHHHFVAYFMPDRTMRVREIVPPELRFVPLPAFPTREGLREQKAYTTEMQRLREQLVSHCACASFSLDALLSSGGHGAASTP	not soluble
